Reference: paper PMC9304066, “H2S biogenesis by cystathionine beta-synthase: mechanism of inhibition by aminooxyacetic acid and unexpected role of serine” (Cellular and Molecular Life Sciences: CMLS, 2022)

What was measured:
Format in all cases: biochemical, Saccharomyces cerevisiae
[1] = substrate: N[C@@H](CS)C(=O)O; assay: CBS H2S production assay (AzMC fluorometric), tScCBS; conditions: other: tScCBS, Cys + Hcy, pH 8.6, 37.0 °C
Experimental: CBS H2S production assay. H2S-producing activity of CBS, utilizing Cys and Hcy, was determined using a fluorometric assay employing the H2S-selective fluorescent probe 7-azido-4-methylcoumarin (AzMC) as described previously. The reaction mixture in a total volume of 200 µL contained 50 mM Tris–HCl pH 8.6, 5 μM PLP, 2 mM Hcy, 10 μM AzMC and 500 ng tScCBS or HsCBS. The plate was incubated for 10 min at 37°C and the enzymatic activity was triggered by adding 0–50 mM Cys. The fluorescence of the mixtures at 450 nm (excited at 365 nm) was followed for 2 h at 37°C. All measurements were performed in triplicates using Tecan Infinite 200 PRO microplate reader. Kinetic data were analyzed using GraphPad Prism software.

[2] = substrate: N[C@@H](CO)C(=O)O; assay: CBL-LDH coupled-coupled CBS assay, tScCBS; conditions: other: tScCBS, substrate varied with 2 mM Hcy, pH 8.9
Experimental: (§1) CBS coupled-coupled assay. CBS canonical activity utilizing Ser and Hcy was determined using cystathionine beta-lyase (CBL) and lactate-dehydrogenase (LDH) coupled-coupled assay as described previously with a few modifications. Native L-LDH from rabbit muscle was purchased from Sigma (catalog no. L2500) and recombinant CBL was purchased from Creative Enzymes (catalog no. NATE-1146). In a final volume of 150 µL, the reaction mixture contained 50 mM Tris–HCl pH 8.9, 20 µM PLP, 500 µM NADH, 1.3 µM LDH, 0.1 µM CBL, 0–20 mM Ser (or 0–50 mM Cys) and 500 ng of tScCBS or HsCBS. Assays with HsCBS were carried out in the absence or presence of 500 µM CBS allosteric activator S-adenosylmethionine (SAM). The reaction was triggered by the addition of 2 mM Hcy and the oxidation of NADH to NAD^+ was followed by monitoring the decrease in absorbance at 340 nm over time (ε340 = 6220 M^−1.cm^−1). […] All measurements were performed in triplicates using Tecan Infinite 200 PRO microplate reader. Kinetic data were analyzed using GraphPad Prism software.

[3] = substrate: N[C@@H](CS)C(=O)O; assay: CBL-LDH coupled-coupled CBS assay, tScCBS; conditions: other: tScCBS, substrate varied with 2 mM Hcy, pH 8.9
Experimental: as §1

B1: tScCBS (Saccharomyces cerevisiae S288C) (protein)
chain: MTKSEQQADSRHNVIDLVGNTPLIALKKLPKALGIKPQIYAKLELYNPGGSIKDRIAKSMVEEAEASGRIHPSRSTLIEPTSGNTGIGLALIGAIKGYRTIITLPEKMSNEKVSVLKALGAEIIRTPTAAAWDSPESHIGVAKKLEKEIPGAVILDQYNNMMNPEAHYFGTGREIQRQLEDLNLFDNLRAVVAGAGTGGTISGISKYLKEQNDKIQIVGADPFGSILAQPENLNKTDITDYKVEGIGYDFVPQVLDRKLIDVWYKTDDKPSFKYARQLISNEGVLVGGSSGSAFTAVVKYCEDHPELTEDDVIVAIFPDSIRSYLTKFVDDEWLKKNNLWDDDVL
notes: 6xHis (C); made in house
Km [1]: 6700 ± 1500 µM | kcat [1]: 3.4 ± 0.3 s⁻¹ | kcat/Km [1]: 510 M⁻¹ s⁻¹ | Km [2]: 2000 ± 400 µM | Vmax [2]: 4.18 µmol/min/mg | kcat [2]: 2.7 ± 0.1 s⁻¹ | kcat/Km [2]: 1340 M⁻¹ s⁻¹ | Km [3]: 2500 ± 200 µM | kcat [3]: 1.7 ± 0.1 s⁻¹ | kcat/Km [3]: 690 M⁻¹ s⁻¹
